Holding throughout (format): in vivo, mouse
The test system of assay [1] is 8-week old (young) wild-type (C57BL/6) mice. Description: Open field test in young mice treated with recombinant human LTA4H protein. How it is done:
The open field test was used to evaluate general locomotor activity and exploratory behavior in a novel environment. It consisted of a square arena (50 cm×50 cm). Mice were brought to the experimental room for at least 30 min of acclimation to the experimental room conditions (dim lighting) prior to testing. Mice were placed in the center of the arena and tracked using automated software (CleverSys or San Diego Instruments) for 15 min. Total distance traveled, average velocity, and time spent in the peripheral and center zones were analyzed.
Recombinant human LTA4H (Bio-techne, 4008-SN) was buffer-exchanged into sterile PBS and dosed at 4.6 ug/150 uL by tail vein i.v. injection. SC-57461A (Cayman Chemical, 423169-68) stock solution was prepared at 10 mg/mL in DMSO. Stock solution was diluted into sterile PBS immediately prior to p.o. dosing to a final concentration of 10% DMSO and 1 mg/mL SC-57461A. Mice were p.o. dosed at 5 mg/kg. CP-105,696 (Sigma, PZ0363), Pinostilbene hydrate (Sigma, SML0098), and Montelukast (Cayman Chemical, 10008318) stock solutions were prepared at 30 mg/mL in EtOH/Solutol. Stock solutions were diluted into sterile PBS immediately prior to p.o. dosing to a final concentration of 10% EtOH and […] inhibitor. Administration to mice was performed p.o. at a dose of 10 mg/kg. Vehicle was 10% EtOH/Solutol and was dosed p.o. at a volume of 150 uL.
Young, 8-week old wild-type (WT; C57BL/6) mice were homogenized between groups by body weight. Following group determination, mice were injected intraperitoneally (IP) with BrdU (5-bromo-2′-deoxyuridine) formulated in PBS (phosphate buffered saline) at a final concentration of 10 mg/mL dosed at 150 mg/kg for 5 days Immediately following the BrdU dosing, group 1 was injected intravenously (IV) with PBS control and group 2 with recombinant human LTA4H protein daily for 7 consecutive days. One week after the completion of LTA4H administration, in week 3, mice in both treatment groups were injected IP with EdU (5-ethynyl-2′-deoxyuridine) formulated in PBS at a final concentration of 10 mg/mL and dosed at 50 mg/kg for 5 days. Behavioral assays were executed in week 5 and 6, and animals were sacrificed, and tissues collected immediately after completion of behavior testing in week 6. FIG. 3 depicts the treatment paradigm and injection timing for the study.
(§1) The initial study in young, 8-week old wild-type (WT; C57BL/6) mice was repeated in a second cohort of mice with additional timepoints and readouts. Mice were homogenized between 3 treatment groups by body weight. Group 1 (Vehicle) was injected intravenously (IV) with PBS control 3 times per week for 6 weeks, group 2 (LTA4H Pulse) with recombinant human LTA4H protein daily for 7 consecutive days, and group 3 (LTA4H Continuous) with recombinant human LTA4H protein 3 times per week for 6 weeks. In week 4 after the initiation of dosing, mice in all treatment groups were injected IP with BrdU (5-bromo-2′-deoxyuridine) formulated in PBS (phosphate buffered saline) at a final concentration of 10 mg/mL dosed at 150 mg/kg for 5 days. Behavioral assays were executed in week 5 and 6, and animals were sacrificed, and tissues collected immediately after completion of behavior testing in week 6. FIG. 10 depicts the treatment paradigm and injection timing for the study.

Assay [2] deals with microglia in the hippocampus. Description: Histology of microglia markers (Iba1, CD68) in the hippocampus of young mice. How it is done:
Brains were collected following saline perfusion and separated by mid-sagittal slice with one-half drop fixed in freshly prepared 4% PFA. PFA was changed to 30% sucrose 24-48 hours later. A second change to 30% sucrose occurred 24 hours later. The second half was dissected into hippocampus and cortex and then snap frozen on dry ice.
Brain tissue was sectioned or lysed and analyzed for markers of neurogenesis and aging by standard histological and biochemical methods, including qRT-PCR, Western blot, ELISA, and immunohistochemistry.
as §1, with “Behavioral assays were executed in week 5 and 6, and animals were sacrificed, and tissues collected immediately after completion of behavior testing in week 6. FIG. 10 depicts the treatment paradigm and injection timing for the study.” left out

Assay [3] relates to 8-week old (young) wild-type (C57BL/6) mice. Description: Y-maze in young mice treated with recombinant human LTA4H protein. The procedure: A large Y-maze test assessed short-term memory of the familiarity of a specific context. Mice were brought to the experimental room for at least 30 min of acclimation to the experimental room conditions (dim lighting) prior to testing. For the initial training trial, the mouse was placed at the end of one arm of a large Y-maze designated “start arm” (arm length: 15 inches). The third arm of the maze was blocked off, allowing the mouse to explore two of the three arms freely (“start arm” and “familiar arm”) for 5 min. Each arm contained spatial cues. Three hours later, the mouse was placed back into the maze in the “start arm,” and allowed to explore all three arms with the third arm unblocked (“novel arm”). Movements in and out of each arm were tracked using automated tracking software (CleverSys or San Diego Instruments). Testing was performed under dim lighting, and the apparatus was cleaned with 70% ethanol between trials. The time spent and number of entireties into the “novel arm” and “familiar arm” were analyzed, as well as total distance travelled and velocity as measures of general locomotor activity.
as §1, with “study. […]” for “study.”

The mark [4] stands for this setting: paradigm 1: IV daily for 7 consecutive days, vs PBS, tested week 5-6.
Setting [5] is: paradigm 2: continuous dosing, IV 3 times per week for 6 weeks.

B1: recombinant human LTA4H: Recombinant human LTA4H (Bio-techne, 4008-SN), leukotriene A4 hydrolase enzyme, dosed by tail vein i.v. injection (protein, UniProt P09960 2-611, looked up)
Leukotriene A-4 hydrolase: PEIVDTCSLASPASVCRTKHLHLRCSVDFTRRTLTGTAALTVQSQEDNLRSLVLDTKDLTIEKVVINGQEVKYALGERQSYKGSPMEISLPIALSKNQEIVIEISFETSPKSSALQWLTPEQTSGKEHPYLFSQCQAIHCRAILPCQDTPSVKLTYTAEVSVPKELVALMSAIRDGETPDPEDPSRKIYKFIQKVPIPCYLIALVVGALESRQIGPRTLVWSEKEQVEKSAYEFSETESMLKIAEDLGGPYVWGQYDLLVLPPSFPYGGMENPCLTFVTPTLLAGDKSLSNVIAHEISHSWTGNLVTNKTWDHFWLNEGHTVYLERHICGRLFGEKFRHFNALGGWGELQNSVKTFGETHPFTKLVVDLTDIDPDVAYSSVPYEKGFALLFYLEQLLGGPEIFLGFLKAYVEKFSYKSITTDDWKDFLYSYFKDKVDVLNQVDWNAWLYSPGLPPIKPNYDMTLTNACIALSQRWITAKEDDLNSFNATDLKDLSSHQLNEFLAQTLQRAPLPLGHIKRMQEVYNFNAINNSEIRFRWLRLCIQSKWEDAIPLALKMATEQGRMKFTRPLFKDLAAFDKSHDQAVRTYQEHKASMHPVTAMLVGKDLKVD
In the case of B1, the “anxiety as measured by percent time spent in periphery or center of the open field” value was “not affected” in assay [1] (paradigm 1: IV daily for 7 consecutive days, vs PBS) and “not affected” in assay [1] (paradigm 2: either dosing paradigm (pulse or continuous)). Besides, the “average velocity in open field” value is recorded as “no change” in assay [1] (setting [4]) and “significant reduction” in assay [1] (setting [5]). Also, the “total distance travelled in open field” value in assay [1] (setting [4]) is listed as “no change”. In assay [1] (setting [5]), the “distance traveled in open field” value is on record as “significant reduction”. The “general locomotion as measured by total distance travelled and average velocity” value in assay [1] (paradigm 2: pulse dosing, IV daily for 7 consecutive days) is given as “impaired with continuous dosing of LTA4H, but not with pulse dosing”. For the same molecule, the “average number of Iba1-labeled cells in the hippocampus” value in assay [2] (paradigm 2: pulse dosing, relative to vehicle PBS) is listed as “significant increase”. The “average number of CD68-labeled cells in the hippocampus” value in assay [2] (paradigm 3: 10 days following pulse dosing (IV daily, 7 days), relative to PBS) is “significant increase”. The “memory of the familiar arm in Y-maze testing (novel vs familiar arm entries)” value in assay [3] (paradigm 2: continuous dosing) and in assay [3] (paradigm 2: pulse dosing) was “impaired memory” throughout. For the same molecule, the “number of entries into the familiar arm during Y-maze training” value in assay [3] (paradigm 2: pulse or continuous dosing, vs PBS) was “no differences”.
